T1: Exd/Hth-HM (UniProt P40427;O46339 1-376;127-211)
T1 sequence 1: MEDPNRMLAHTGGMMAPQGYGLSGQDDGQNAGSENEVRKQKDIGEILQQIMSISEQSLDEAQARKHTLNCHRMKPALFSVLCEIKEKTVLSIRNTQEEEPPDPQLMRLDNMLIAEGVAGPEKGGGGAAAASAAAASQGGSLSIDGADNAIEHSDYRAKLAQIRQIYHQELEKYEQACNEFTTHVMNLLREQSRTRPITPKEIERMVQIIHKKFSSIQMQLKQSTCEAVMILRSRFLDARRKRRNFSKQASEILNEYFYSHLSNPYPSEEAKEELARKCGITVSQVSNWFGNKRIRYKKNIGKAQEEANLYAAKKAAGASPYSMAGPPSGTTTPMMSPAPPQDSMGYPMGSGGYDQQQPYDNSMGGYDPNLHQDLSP
T1 sequence 2: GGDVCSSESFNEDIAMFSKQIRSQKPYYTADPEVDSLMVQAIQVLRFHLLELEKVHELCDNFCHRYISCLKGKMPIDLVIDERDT

B1: motif-24 (dsDNA)
DNA 1: CGCTCATAAAGTTAACCAACGATTTCATTCCTAAAC
DNA 2: GTTTAGGAATGAAATCGTTGGTTAACTTTATGAGCG
B2: motif-30 Grh1 mutant (dsDNA)
DNA 1: GAAACACGATAACCATAACTAATCC
DNA 2: GGATTAGTTATGGTTATCGTGTTTC

Columns and labels:
[1] = target: AbdA (Hox);Exd/Hth-HM (Drosophila melanogaster?;Drosophila …, UniProt P29555;P40427;O46339 261-590;1-376;127-211, |); assay: EMSA; EMSA, 20 ul, 30 min, room temperature; 5X buffer as printed: 20% glycerol, 1 mg/ml BSA, 2.5 mM EDTA, '50mM 1M tris' pH 7.5, 50 mM KCl, 5 mM MgCl2, 2.5 mM DTT, 90 ug/ml poly(dI-dC); proteins 100-200 ng; settings: protein: recombinant;recombinant; tags: 6xHis;6xHis; copies: 1;1;1
AbdA (Hox);Exd/Hth-HM, sequence (P29555 261-590, one chain of several): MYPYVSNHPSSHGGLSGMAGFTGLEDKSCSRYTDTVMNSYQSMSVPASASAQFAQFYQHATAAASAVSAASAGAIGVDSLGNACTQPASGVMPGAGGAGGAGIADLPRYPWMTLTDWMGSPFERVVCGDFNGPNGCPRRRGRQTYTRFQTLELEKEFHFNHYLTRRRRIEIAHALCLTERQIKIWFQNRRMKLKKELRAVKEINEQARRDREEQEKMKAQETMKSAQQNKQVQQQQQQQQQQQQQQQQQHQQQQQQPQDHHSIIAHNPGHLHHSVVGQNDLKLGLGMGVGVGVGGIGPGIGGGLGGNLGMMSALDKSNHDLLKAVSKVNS

[2] = target: Grh (UniProt P13002 551-1333); assay: as above; settings: protein: recombinant; tags: 6xHis; chain copies: 2
Grh, sequence (P13002 551-1333): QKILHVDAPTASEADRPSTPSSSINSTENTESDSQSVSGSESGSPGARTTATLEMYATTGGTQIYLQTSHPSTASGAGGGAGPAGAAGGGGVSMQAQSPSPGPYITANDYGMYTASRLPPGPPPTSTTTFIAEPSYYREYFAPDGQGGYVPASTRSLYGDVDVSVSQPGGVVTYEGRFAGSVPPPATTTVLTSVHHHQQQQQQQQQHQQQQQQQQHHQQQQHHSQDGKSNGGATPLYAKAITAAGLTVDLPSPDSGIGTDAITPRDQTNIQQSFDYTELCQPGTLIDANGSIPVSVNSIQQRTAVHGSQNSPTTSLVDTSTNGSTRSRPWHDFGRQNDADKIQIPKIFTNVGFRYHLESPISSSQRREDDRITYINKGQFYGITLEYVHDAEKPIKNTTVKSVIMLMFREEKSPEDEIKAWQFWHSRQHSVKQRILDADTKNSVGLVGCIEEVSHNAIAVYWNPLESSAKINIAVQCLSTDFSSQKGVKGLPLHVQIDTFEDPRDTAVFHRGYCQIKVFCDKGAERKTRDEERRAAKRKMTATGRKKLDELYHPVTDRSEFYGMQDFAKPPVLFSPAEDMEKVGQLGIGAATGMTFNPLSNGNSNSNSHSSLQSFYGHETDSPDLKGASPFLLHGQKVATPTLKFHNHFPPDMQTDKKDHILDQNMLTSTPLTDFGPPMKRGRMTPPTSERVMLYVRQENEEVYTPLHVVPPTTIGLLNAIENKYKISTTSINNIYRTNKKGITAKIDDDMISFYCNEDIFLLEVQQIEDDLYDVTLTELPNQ

[3] = target: AbdA (Hox) (UniProt P29555 261-590); assay: EMSA; no significant binding; EMSA, 20 ul, 30 min, room temperature; 5X buffer as printed: 20% glycerol, 1 mg/ml BSA, 2.5 mM EDTA, '50mM 1M tris' pH 7.5, 50 mM KCl, 5 mM MgCl2, 2.5 mM DTT, 90 ug/ml poly(dI-dC); proteins 100-200 ng; settings: protein: recombinant; tags: 6xHis
AbdA (Hox), sequence (P29555 261-590): as the sequence (P29555 261-590, one chain of several) above

[4] = target: T1, Exd/Hth-HM; assay: as above; settings: protein: recombinant; tags: 6xHis; copies: 1;1
[5] = target: AbdA (Hox);Exd/Hth-HM;Grh (Drosophila melanogaster?;Drosophila …, UniProt P29555;P40427;O46339;P13002 261-590;1-376;127-211;551-1333, ||); assay: EMSA; EMSA, 20 ul, 30 min, room temperature; 5X buffer as printed: 20% glycerol, 1 mg/ml BSA, 2.5 mM EDTA, '50mM 1M tris' pH 7.5, 50 mM KCl, 5 mM MgCl2, 2.5 mM DTT, 90 ug/ml poly(dI-dC); proteins 100-200 ng; settings: protein: recombinant;recombinant;recombinant; tags: 6xHis;6xHis;6xHis; copies: 1;1;1;2
AbdA (Hox);Exd/Hth-HM;Grh, sequence (P29555 261-590, chain 1 of 4, one chain of several): as the sequence (P29555 261-590, one chain of several) above
AbdA (Hox);Exd/Hth-HM;Grh, sequence (P13002 551-1333, chain 4 of 4, one chain of several): as the sequence (P13002 551-1333) above

[6] = target: AbdA (Hox);Grh (Drosophila melanogaster?;Drosophila …, UniProt P29555;P13002 261-590;551-1333, |); assay: EMSA; 'compromised'; later 'abolished completely'; EMSA, 20 ul, 30 min, room temperature; 5X buffer as printed: 20% glycerol, 1 mg/ml BSA, 2.5 mM EDTA, '50mM 1M tris' pH 7.5, 50 mM KCl, 5 mM MgCl2, 2.5 mM DTT, 90 ug/ml poly(dI-dC); proteins 100-200 ng; settings: protein: recombinant;recombinant; tags: 6xHis;6xHis; copies: 1;2
AbdA (Hox);Grh, sequence (P29555 261-590, chain 1 of 2): as the sequence (P29555 261-590, one chain of several) above
AbdA (Hox);Grh, sequence (P13002 551-1333, chain 2 of 2): as the sequence (P13002 551-1333) above

Binder	binding result [1]	binding result [2]	binding result [3]	binding result [4]	binding result [5]	binding result [6]
B1	binds	no binding	no binding	no binding		
B2	binds				no binding	no binding

From PMC5667929, “Combinatorial action of Grainyhead, Extradenticle and Notch in regulating Hox mediated apoptosis in Drosophila larval CNS”
